{
  "source": "patent US20100166764A1",
  "about": "(Eli Lilly, published 2010)",
  "data": [
    {"biological_target": "T1, mature myostatin (human, murine, rat, chicken, turkey, …, UniProt O08689 268-376 (mouse entry))", "T1 sequence": "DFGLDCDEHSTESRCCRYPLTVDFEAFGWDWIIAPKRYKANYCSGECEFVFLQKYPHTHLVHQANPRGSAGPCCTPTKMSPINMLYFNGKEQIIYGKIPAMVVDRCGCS", "assay": "cell-based or functional assay", "units": {"IC50 in the myostatin/SBE reporter assay (luciferase, HEK293 EBNA cells)": "nM"}, "values": [
      {"binder": "Mab C12 (antibody, V domains shown) VH: QLQLQESGPGLVKPSETLSLTCTVSGFSLRKVGSSVSWIRQPPGKGLEWIGHIYWDDDKRLNPSLRNRVTISVDTSKNQFSLKLSSVTAADTAVYYCARRAITTVIGGGTFDLWGQGTLVTVSS VL: DIQMTQSPSSLSASVGDRVTITCSASSSISYMHWYQQKPGKAPKLLIYDTSKLARGVPSRFSGSGSGTDFTLTISSLQPEDFATYYCQQWYLNPLTFGGGTKVEIKR", "IC50 in the myostatin/SBE reporter assay (luciferase, HEK293 EBNA cells)": "~9.59"},
      {"binder": "C12-N93H (antibody, human IgG4 S228P, kappa, V domains shown) VH: QLQLQESGPGLVKPSETLSLTCTVSGFSLRKVGSSVSWIRQPPGKGLEWIGHIYWDDDKRLNPSLRNRVTISVDTSKNQFSLKLSSVTAADTAVYYCARRAITTVIGGGTFDLWGQGTLVTVSS VL: DIQMTQSPSSLSASVGDRVTITCSASSSISYMHWYQQKPGKAPKLLIYDTSKLARGVPSRFSGSGSGTDFTLTISSLQPEDFATYYCQQWYLHPLTFGGGTKVEIKR", "IC50 in the myostatin/SBE reporter assay (luciferase, HEK293 EBNA cells)": "~7.03"}
    ]},
    {"biological_target": "T1, mature myostatin", "assay": "ELISA, myostatin coated, periprep Fab titrated, anti-human-kappa-AP", "experimental": "ELISA plates are coated with myostatin diluted to 4 ug/ml in carbonate buffer (50 mM NaHCO₃ pH 8.3) and 50 μL added per well. Plates are covered with sealing tape and incubate overnight at 4° C. Thereafter, plates (Greiner U-bottom plates Cat #650061) are washed three times with PBS-T (0.1% Tween-20) using an automatic plate washer. 200 μL of blocking buffer (PBS+1% BSA+0.1% Tween-20) is added to every well and incubated at room temperature for one hour. Plates are washed and 50 μl of sample added per well. Samples are composed of periprep Fabs diluted in PBST/BSA starting at a 1:3 dilution and then serially diluted in half-log steps. Plates are washed and 50 μL of secondary antibody solution (1:2000 goat anti-human-kappa-AP Southern Biotech Cat # 2060-04 in PBST/BSA) is added to every well. Following an additional wash step, 100 μL of AP substrate is added per well and incubates at room temperature for about 10 minutes. The absorbance or OD at 560 nm is read. C12 or 510C2 is included on each ELISA plate as an affinity reference standard. The concentration of Fabs is determined by a quantitative ELISA using an anti-Fd antibody (Sheep anti-Fd Biodesign) to capture protein and goat anti-human-kappa-AP (Southern Biotech) to detect. A purified Fab standard is run on each plate to generate a standard curve for the concentration determinations.", "values": [
      {"binder": "C12 Fab with the Asn residue in CDRL3 replaced with lysine (Fab, V domains shown, Periprep Fab) VH: QLQLQESGPGLVKPSETLSLTCTVSGFSLRKVGSSVSWIRQPPGKGLEWIGHIYWDDDKRLNPSLRNRVTISVDTSKNQFSLKLSSVTAADTAVYYCARRAITTVIGGGTFDLWGQGTLVTVSS VL: DIQMTQSPSSLSASVGDRVTITCSASSSISYMHWYQQKPGKAPKLLIYDTSKLARGVPSRFSGSGSGTDFTLTISSLQPEDFATYYCQQWYLKPLTFGGGTKVEIKR", "binding result": "binds"},
      {"binder": "C12 Fab with the Asn residue in CDRL3 replaced with threonine (Fab, V domains shown, Periprep Fab) VH: QLQLQESGPGLVKPSETLSLTCTVSGFSLRKVGSSVSWIRQPPGKGLEWIGHIYWDDDKRLNPSLRNRVTISVDTSKNQFSLKLSSVTAADTAVYYCARRAITTVIGGGTFDLWGQGTLVTVSS VL: DIQMTQSPSSLSASVGDRVTITCSASSSISYMHWYQQKPGKAPKLLIYDTSKLARGVPSRFSGSGSGTDFTLTISSLQPEDFATYYCQQWYLTPLTFGGGTKVEIKR", "binding result": "binds"},
      {"binder": "C12 Fab with the Asn residue in CDRL3 replaced with proline (Fab, V domains shown, Periprep Fab) VH: QLQLQESGPGLVKPSETLSLTCTVSGFSLRKVGSSVSWIRQPPGKGLEWIGHIYWDDDKRLNPSLRNRVTISVDTSKNQFSLKLSSVTAADTAVYYCARRAITTVIGGGTFDLWGQGTLVTVSS VL: DIQMTQSPSSLSASVGDRVTITCSASSSISYMHWYQQKPGKAPKLLIYDTSKLARGVPSRFSGSGSGTDFTLTISSLQPEDFATYYCQQWYLPPLTFGGGTKVEIKR", "binding result": "binds"},
      {"binder": "C12 Fab with the Asn residue in CDRL3 replaced with aspartic acid (Fab, V domains shown, Periprep Fab) VH: QLQLQESGPGLVKPSETLSLTCTVSGFSLRKVGSSVSWIRQPPGKGLEWIGHIYWDDDKRLNPSLRNRVTISVDTSKNQFSLKLSSVTAADTAVYYCARRAITTVIGGGTFDLWGQGTLVTVSS VL: DIQMTQSPSSLSASVGDRVTITCSASSSISYMHWYQQKPGKAPKLLIYDTSKLARGVPSRFSGSGSGTDFTLTISSLQPEDFATYYCQQWYLDPLTFGGGTKVEIKR", "binding result": "binds"},
      {"binder": "C12 Fab with the Asn residue in CDRL3 replaced with glycine (Fab, V domains shown, Periprep Fab) VH: QLQLQESGPGLVKPSETLSLTCTVSGFSLRKVGSSVSWIRQPPGKGLEWIGHIYWDDDKRLNPSLRNRVTISVDTSKNQFSLKLSSVTAADTAVYYCARRAITTVIGGGTFDLWGQGTLVTVSS VL: DIQMTQSPSSLSASVGDRVTITCSASSSISYMHWYQQKPGKAPKLLIYDTSKLARGVPSRFSGSGSGTDFTLTISSLQPEDFATYYCQQWYLGPLTFGGGTKVEIKR", "binding result": "binds"},
      {"binder": "C12 Fab with the Asn residue in CDRL3 replaced with tyrosine (Fab, V domains shown, Periprep Fab) VH: QLQLQESGPGLVKPSETLSLTCTVSGFSLRKVGSSVSWIRQPPGKGLEWIGHIYWDDDKRLNPSLRNRVTISVDTSKNQFSLKLSSVTAADTAVYYCARRAITTVIGGGTFDLWGQGTLVTVSS VL: DIQMTQSPSSLSASVGDRVTITCSASSSISYMHWYQQKPGKAPKLLIYDTSKLARGVPSRFSGSGSGTDFTLTISSLQPEDFATYYCQQWYLYPLTFGGGTKVEIKR", "binding result": "binds"},
      {"binder": "C12 Fab with the Asn residue in CDRL3 replaced with cysteine (Fab, V domains shown, Periprep Fab) VH: QLQLQESGPGLVKPSETLSLTCTVSGFSLRKVGSSVSWIRQPPGKGLEWIGHIYWDDDKRLNPSLRNRVTISVDTSKNQFSLKLSSVTAADTAVYYCARRAITTVIGGGTFDLWGQGTLVTVSS VL: DIQMTQSPSSLSASVGDRVTITCSASSSISYMHWYQQKPGKAPKLLIYDTSKLARGVPSRFSGSGSGTDFTLTISSLQPEDFATYYCQQWYLCPLTFGGGTKVEIKR", "binding result": "binds"},
      {"binder": "C12 Fab with the Asn residue in CDRL3 replaced with alanine (Fab, V domains shown, Periprep Fab) VH: QLQLQESGPGLVKPSETLSLTCTVSGFSLRKVGSSVSWIRQPPGKGLEWIGHIYWDDDKRLNPSLRNRVTISVDTSKNQFSLKLSSVTAADTAVYYCARRAITTVIGGGTFDLWGQGTLVTVSS VL: DIQMTQSPSSLSASVGDRVTITCSASSSISYMHWYQQKPGKAPKLLIYDTSKLARGVPSRFSGSGSGTDFTLTISSLQPEDFATYYCQQWYLAPLTFGGGTKVEIKR", "binding result": "binds"},
      {"binder": "C12 Fab with the Asn residue in CDRL3 replaced with leucine (Fab, V domains shown, Periprep Fab) VH: QLQLQESGPGLVKPSETLSLTCTVSGFSLRKVGSSVSWIRQPPGKGLEWIGHIYWDDDKRLNPSLRNRVTISVDTSKNQFSLKLSSVTAADTAVYYCARRAITTVIGGGTFDLWGQGTLVTVSS VL: DIQMTQSPSSLSASVGDRVTITCSASSSISYMHWYQQKPGKAPKLLIYDTSKLARGVPSRFSGSGSGTDFTLTISSLQPEDFATYYCQQWYLLPLTFGGGTKVEIKR", "binding result": "binds"},
      {"binder": "C12 Fab with the Asn residue in CDRL3 replaced with tryptophan (Fab, V domains shown, Periprep Fab) VH: QLQLQESGPGLVKPSETLSLTCTVSGFSLRKVGSSVSWIRQPPGKGLEWIGHIYWDDDKRLNPSLRNRVTISVDTSKNQFSLKLSSVTAADTAVYYCARRAITTVIGGGTFDLWGQGTLVTVSS VL: DIQMTQSPSSLSASVGDRVTITCSASSSISYMHWYQQKPGKAPKLLIYDTSKLARGVPSRFSGSGSGTDFTLTISSLQPEDFATYYCQQWYLWPLTFGGGTKVEIKR", "binding result": "binds"},
      {"binder": "C12 Fab with the Asn residue in CDRL3 replaced with isoleucine (Fab, V domains shown, Periprep Fab) VH: QLQLQESGPGLVKPSETLSLTCTVSGFSLRKVGSSVSWIRQPPGKGLEWIGHIYWDDDKRLNPSLRNRVTISVDTSKNQFSLKLSSVTAADTAVYYCARRAITTVIGGGTFDLWGQGTLVTVSS VL: DIQMTQSPSSLSASVGDRVTITCSASSSISYMHWYQQKPGKAPKLLIYDTSKLARGVPSRFSGSGSGTDFTLTISSLQPEDFATYYCQQWYLIPLTFGGGTKVEIKR", "binding result": "binds"},
      {"binder": "C12 Fab with the Asn residue in CDRL3 replaced with methionine (Fab, V domains shown, Periprep Fab) VH: QLQLQESGPGLVKPSETLSLTCTVSGFSLRKVGSSVSWIRQPPGKGLEWIGHIYWDDDKRLNPSLRNRVTISVDTSKNQFSLKLSSVTAADTAVYYCARRAITTVIGGGTFDLWGQGTLVTVSS VL: DIQMTQSPSSLSASVGDRVTITCSASSSISYMHWYQQKPGKAPKLLIYDTSKLARGVPSRFSGSGSGTDFTLTISSLQPEDFATYYCQQWYLMPLTFGGGTKVEIKR", "binding result": "binds"},
      {"binder": "C12 Fab with the Asn residue in CDRL3 replaced with glutamic acid (Fab, V domains shown, Periprep Fab) VH: QLQLQESGPGLVKPSETLSLTCTVSGFSLRKVGSSVSWIRQPPGKGLEWIGHIYWDDDKRLNPSLRNRVTISVDTSKNQFSLKLSSVTAADTAVYYCARRAITTVIGGGTFDLWGQGTLVTVSS VL: DIQMTQSPSSLSASVGDRVTITCSASSSISYMHWYQQKPGKAPKLLIYDTSKLARGVPSRFSGSGSGTDFTLTISSLQPEDFATYYCQQWYLEPLTFGGGTKVEIKR", "binding result": "binds"},
      {"binder": "C12 Fab with the Asn residue in CDRL3 replaced with phenylalanine (Fab, V domains shown, Periprep Fab) VH: QLQLQESGPGLVKPSETLSLTCTVSGFSLRKVGSSVSWIRQPPGKGLEWIGHIYWDDDKRLNPSLRNRVTISVDTSKNQFSLKLSSVTAADTAVYYCARRAITTVIGGGTFDLWGQGTLVTVSS VL: DIQMTQSPSSLSASVGDRVTITCSASSSISYMHWYQQKPGKAPKLLIYDTSKLARGVPSRFSGSGSGTDFTLTISSLQPEDFATYYCQQWYLFPLTFGGGTKVEIKR", "binding result": "binds"},
      {"binder": "C12 Fab with the Asn residue in CDRL3 replaced with glutamine (Fab, V domains shown, Periprep Fab) VH: QLQLQESGPGLVKPSETLSLTCTVSGFSLRKVGSSVSWIRQPPGKGLEWIGHIYWDDDKRLNPSLRNRVTISVDTSKNQFSLKLSSVTAADTAVYYCARRAITTVIGGGTFDLWGQGTLVTVSS VL: DIQMTQSPSSLSASVGDRVTITCSASSSISYMHWYQQKPGKAPKLLIYDTSKLARGVPSRFSGSGSGTDFTLTISSLQPEDFATYYCQQWYLQPLTFGGGTKVEIKR", "binding result": "binds"},
      {"binder": "C12 Fab with the Asn residue in CDRL3 replaced with valine (Fab, V domains shown, Periprep Fab) VH: QLQLQESGPGLVKPSETLSLTCTVSGFSLRKVGSSVSWIRQPPGKGLEWIGHIYWDDDKRLNPSLRNRVTISVDTSKNQFSLKLSSVTAADTAVYYCARRAITTVIGGGTFDLWGQGTLVTVSS VL: DIQMTQSPSSLSASVGDRVTITCSASSSISYMHWYQQKPGKAPKLLIYDTSKLARGVPSRFSGSGSGTDFTLTISSLQPEDFATYYCQQWYLVPLTFGGGTKVEIKR", "binding result": "binds"},
      {"binder": "C12 Fab with the Asn residue in CDRL3 replaced with serine (Fab, V domains shown, Periprep Fab) VH: QLQLQESGPGLVKPSETLSLTCTVSGFSLRKVGSSVSWIRQPPGKGLEWIGHIYWDDDKRLNPSLRNRVTISVDTSKNQFSLKLSSVTAADTAVYYCARRAITTVIGGGTFDLWGQGTLVTVSS VL: DIQMTQSPSSLSASVGDRVTITCSASSSISYMHWYQQKPGKAPKLLIYDTSKLARGVPSRFSGSGSGTDFTLTISSLQPEDFATYYCQQWYLSPLTFGGGTKVEIKR", "binding result": "binds"}
    ]}
  ]
}
